Results from paper PMC11601597 (bioRxiv, 2024).

Tests used:
[1] = target: K. pneumoniae OqxB (K. pneumoniae); test: crystal structure
[2] = target: K. pneumoniae OqxB (K. pneumoniae); test: cryo-EM structure
cryo-EM structure = target: the molecule itself; test: cryo-EM structure
crystal structure = target: the molecule itself; test: crystal structure

**Q.** For K. pneumoniae OqxB (natural protein), which stoichiometry N [1] is on record?
**A.** 3

**Q.** What about the stoichiometry N [2] of the same molecule?
**A.** 3

B1: E. coli AcrB V612F (natural protein)
chain: MPNFFIDRPIFAWVIAIIIMLAGGLAILKLPVAQYPTIAPPAVTISASYPGADAKTVQDTVTQVIEQNMNGIDNLMYMSSNSDSTGTVQITLTFESGTDADIAQVQVQNKLQLAMPLLPQEVQQQGVSVEKSSSSFLMVVGVINTDGTMTQEDISDYVAANMKDAISRTSGVGDVQLFGSQYAMRIWMNPNELNKFQLTPVDVITAIKAQNAQVAAGQLGGTPPVKGQQLNASIIAQTRLTSTEEFGKILLKVNQDGSRVLLRDVAKIELGGENYDIIAEFNGQPASGLGIKLATGANALDTAAAIRAELAKMEPFFPSGLKIVYPYDTTPFVKISIHEVVKTLVEAIILVFLVMYLFLQNFRATLIPTIAVPVVLLGTFAVLAAFGFSINTLTMFGMVLAIGLLVDDAIVVVENVERVMAEEGLPPKEATRKSMGQIQGALVGIAMVLSAVFVPMAFFGGSTGAIYRQFSITIVSAMALSVLVALILTPALCATMLKPIAKGDHGEGKKGFFGWFNRMFEKSTHHYTDSVGGILRSTGRYLVLYLIIVVGMAYLFVRLPSSFLPDEDQGVFMTMVQLPAGATQERTQKVLNEVTHYYLTKEKNNVESVFAFNGFGFAGRGQNTGIAFVSLKDWADRPGEENKVEAITMRATRAFSQIKDAMVFAFNLPAIVELGTATGFDFELIDQAGLGHEKLTQARNQLLAEAAKHPDMLTSVRPNGLEDTPQFKIDIDQEKAQALGVSINDINTTLGAAWGGSYVNDFIDRGRVKKVYVMSEAKYRMLPDDIGDWYVRAADGQMVPFSAFSSSRWEYGSPRLERYNGLPSMEILGQAAPGKSTGEAMELMEQLASKLPTGVGYDWTGMSYQERLSGNQAPSLYAISLIVVFLCLAALYESWSIPFSVMLVVPLGVIGALLAATFRGLTNDVYFQVGLLTTIGLSAKNAILIVEFAKDLMDKEGKGLIEATLDAVRMRLRPILMTSLAFILGVMPLVISTGAGSGAQNAVGTGVMGGMVTATVLAIFFVPVFFVVVRRRFSRKNEDIEHSHTVDHH
**Q.** How did the “stoichiometry N” value (cryo-EM structure) turn out when B1 was run?
**A.** 3

B2: E. coli AcrB V612N (natural protein)
chain: MPNFFIDRPIFAWVIAIIIMLAGGLAILKLPVAQYPTIAPPAVTISASYPGADAKTVQDTVTQVIEQNMNGIDNLMYMSSNSDSTGTVQITLTFESGTDADIAQVQVQNKLQLAMPLLPQEVQQQGVSVEKSSSSFLMVVGVINTDGTMTQEDISDYVAANMKDAISRTSGVGDVQLFGSQYAMRIWMNPNELNKFQLTPVDVITAIKAQNAQVAAGQLGGTPPVKGQQLNASIIAQTRLTSTEEFGKILLKVNQDGSRVLLRDVAKIELGGENYDIIAEFNGQPASGLGIKLATGANALDTAAAIRAELAKMEPFFPSGLKIVYPYDTTPFVKISIHEVVKTLVEAIILVFLVMYLFLQNFRATLIPTIAVPVVLLGTFAVLAAFGFSINTLTMFGMVLAIGLLVDDAIVVVENVERVMAEEGLPPKEATRKSMGQIQGALVGIAMVLSAVFVPMAFFGGSTGAIYRQFSITIVSAMALSVLVALILTPALCATMLKPIAKGDHGEGKKGFFGWFNRMFEKSTHHYTDSVGGILRSTGRYLVLYLIIVVGMAYLFVRLPSSFLPDEDQGVFMTMVQLPAGATQERTQKVLNEVTHYYLTKEKNNVESVFANNGFGFAGRGQNTGIAFVSLKDWADRPGEENKVEAITMRATRAFSQIKDAMVFAFNLPAIVELGTATGFDFELIDQAGLGHEKLTQARNQLLAEAAKHPDMLTSVRPNGLEDTPQFKIDIDQEKAQALGVSINDINTTLGAAWGGSYVNDFIDRGRVKKVYVMSEAKYRMLPDDIGDWYVRAADGQMVPFSAFSSSRWEYGSPRLERYNGLPSMEILGQAAPGKSTGEAMELMEQLASKLPTGVGYDWTGMSYQERLSGNQAPSLYAISLIVVFLCLAALYESWSIPFSVMLVVPLGVIGALLAATFRGLTNDVYFQVGLLTTIGLSAKNAILIVEFAKDLMDKEGKGLIEATLDAVRMRLRPILMTSLAFILGVMPLVISTGAGSGAQNAVGTGVMGGMVTATVLAIFFVPVFFVVVRRRFSRKNEDIEHSHTVDHH
**Q.** How did the “stoichiometry N” value (crystal structure) turn out when B2 was run?
**A.** 3

B3: E. coli AcrB V612W (natural protein)
chain: MPNFFIDRPIFAWVIAIIIMLAGGLAILKLPVAQYPTIAPPAVTISASYPGADAKTVQDTVTQVIEQNMNGIDNLMYMSSNSDSTGTVQITLTFESGTDADIAQVQVQNKLQLAMPLLPQEVQQQGVSVEKSSSSFLMVVGVINTDGTMTQEDISDYVAANMKDAISRTSGVGDVQLFGSQYAMRIWMNPNELNKFQLTPVDVITAIKAQNAQVAAGQLGGTPPVKGQQLNASIIAQTRLTSTEEFGKILLKVNQDGSRVLLRDVAKIELGGENYDIIAEFNGQPASGLGIKLATGANALDTAAAIRAELAKMEPFFPSGLKIVYPYDTTPFVKISIHEVVKTLVEAIILVFLVMYLFLQNFRATLIPTIAVPVVLLGTFAVLAAFGFSINTLTMFGMVLAIGLLVDDAIVVVENVERVMAEEGLPPKEATRKSMGQIQGALVGIAMVLSAVFVPMAFFGGSTGAIYRQFSITIVSAMALSVLVALILTPALCATMLKPIAKGDHGEGKKGFFGWFNRMFEKSTHHYTDSVGGILRSTGRYLVLYLIIVVGMAYLFVRLPSSFLPDEDQGVFMTMVQLPAGATQERTQKVLNEVTHYYLTKEKNNVESVFAWNGFGFAGRGQNTGIAFVSLKDWADRPGEENKVEAITMRATRAFSQIKDAMVFAFNLPAIVELGTATGFDFELIDQAGLGHEKLTQARNQLLAEAAKHPDMLTSVRPNGLEDTPQFKIDIDQEKAQALGVSINDINTTLGAAWGGSYVNDFIDRGRVKKVYVMSEAKYRMLPDDIGDWYVRAADGQMVPFSAFSSSRWEYGSPRLERYNGLPSMEILGQAAPGKSTGEAMELMEQLASKLPTGVGYDWTGMSYQERLSGNQAPSLYAISLIVVFLCLAALYESWSIPFSVMLVVPLGVIGALLAATFRGLTNDVYFQVGLLTTIGLSAKNAILIVEFAKDLMDKEGKGLIEATLDAVRMRLRPILMTSLAFILGVMPLVISTGAGSGAQNAVGTGVMGGMVTATVLAIFFVPVFFVVVRRRFSRKNEDIEHSHTVDHH
**Q.** For B3, which “stoichiometry N” value (cryo-EM structure) is on record?
**A.** 3
